Results as given in patent US6858775B1, “Method for generating split, non-transferable genes that are able to express an active protein product” (New England Biolabs, Inc., priority 1999, dated 2005).

How the values were obtained:
E. coli ER2744 [1] = assay: Plate assay: rescue of E. coli ER2744 growth on valine or valine plus SM M9 plates; format: cell-based
Source text: E. coli ER2744 strain was employed as an in vivo model system for assessing the activity of the herbicide resistant E. coli ALSII gene, genetically modified by a linker insertion between Q327 and C328. E. coli ER2744 is derived from wild type E. coli K12 that contains the active ALSI and ALSIII enzymes, but not an active ALSII. ALSI and ALSIII are two isoforms of ALS genes in E. coli, which are crucial for the synthesis of valine, isoleucine and leucine (LaRossa and Schloss, J. Biol. Chem. 259:8753-8757 (1984)). Their activity is sensitive to the valine feedback inhibition. Therefore, by saturating the growth medium with 100 μg/ml valine (Sigma, St. Louis, Mo.), ALSI and III will be inhibited and the cells will stop growing. By introducing a recombinant herbicide resistant ALSII (ALSIIm) into E. coli cells, their growth will be rescued since ALSII is resistant to valine inhibition.
Plate assays were conducted to examine the capability of ALSIIm-14 to rescue E. coli ER2744 from valine (100 μg/ml) or valine plus herbicide SM (50 μg/ml, Supelco Park, Bellefonte, Pa.) saturated M9 minimum medium plate (Sambrook et al., (1989)). The M9 medium contains 2 μg/ml Thiamin, 2 mM MgSO4, 0.1 mM CaCl2, 0.2% glucose, 50 μg/ml of kanamycin, 100 μg/ml of ampicillin and 0.3 mM IPTG. For the plating assay, 100 μl of 25 mg/ml Valine with or without 50 μl of 25 μg/ml Sulfometuron methyl (SM) was spread on M9 selection plate. To assay bacterial growth, overnight cultures were streaked on M9 plates with or without valine and/or SM. The plates were incubated at various temperatures (as indicated in FIG. 7) for 48 to 72 hrs before the pictures were taken. On the plate supplemented with valine, cells expressing either ALSII, ALSIIm or ALSIIm-14 were able to grow (FIG. 7-a). However, when both valine and SM was applied, only strains expressing herbicide-resistant ALSIIm or ALSIIm-14 were able to grow (FIG. 7-b).
The next step was to determine whether the spliced product, as the result of trans-splicing of the ALSIIm (ALSIIm(N)—INn and ALSIIm(C)—INc) fusion proteins, would render E. coli ER2744 resistant to valine and SM. The first experiment was to test the effect of co-expression of ALSIIm(N)—INn and ALSIIm(C)—INc fusion proteins on cell growth in valine saturated M9 minimum medium. In a plating assay (see Section 4.), all transformed cells grew well on M9 medium in the absence of valine (FIG. 9A-a). […] (FIG. 9A-b, 9A-c) in the presence of valine. […] (FIG. 9A-c) or lower temperatures (data not shown) from a valine plate.

E. coli ER2744 [2] = assay: Quantitative liquid culture assay (OD600) of E. coli ER2744 in valine / SM M9 medium; format: cell-based; conditions: 30° C.
Experimental: A quantitative liquid culture assay was performed to verify the results obtained from the plating assay. The liquid assay was performed as follows. A single colony was used to inoculate LB medium supplemented with kanamycin and ampicillin at 37° C. for 4 hours. Expression was induced by 0.3 mM IPTG and cell cultures were shifted to 30° C. for another 2 hrs. Then, 200 μL of equivalent OD600 8.0 was spun down, washed one time with M9 medium and resuspended in 200 μl M9 medium. 40 μl was aliquoted into 2 ml of appropriate culture medium and grown for 24-72 hours before its OD600 was measured. The concentration for valine is 100 μg/ml and for SM is 50 μg/ml. At 30° C., all transformed cells grew equally well in M9 minimum medium (FIG. 9B). […] To further compare the growth kinetics for trans-splicing mediated cell growth to wild type ALSII mediated cell growth, a time course study was performed (FIG. 9C).

## ALSIIm(N)—INn: fusion of ALSIIm N-terminal 327 residues and Ssp DnaE intein N-terminal 123 residues
E. coli ER2744 [1]; 100 μg/ml valine
  cell growth on M9 plate in the presence of valine at both 30° C. and 37° C.: did not grow
E. coli ER2744 [2]; 100 μg/ml valine
  cell growth in valine saturated M9 liquid medium: did not rescue cell growth

B1: ALSII: wild type E. coli acetolactate synthase II expressed from plasmid pALSII (protein)
chain: MNGAQWVVHALRAQGVNTVFGYPGGAIMPVYDALYDGGVEHLLCRHEQGAAMAAIGYARATGKTGVCIATSGPGATNLITGLADALLDSIPVVAITGQVSAPFIGTDAFQEVDVLGLSLACTKHSFLVQSLEELPRIMAEAFDVACSGRPGPVLVDIPKDIQLASGDLEPWFTTVENEVTFPHAEVEQARQMLAKAQKPMLYVGGGVGMAQAVPALREFLAATKMPATCTLKGLGAVEADYPYYLGMLGMHGTKAANFAVQECDLLIAVGARFDDRVTGKLNTFAPHASVIHMDIDPAEMNKLRQAHVALQGDLNALLPALQQPLNQYDWQQHCAQLRDEHSWRYDHPGDAIYAPLLLKQLSDRKPADCVVTTDVGQHQMWAAQHIAHTRPENFITSSGLGTMGFGLPAAVGAQVARPNDTVVCISGDGSFMMNVQELGTVKRKQLPLKIVLLDNQRLGMVRQWQQLFFQERYSETTLTDNPDFLMLASAFGIHGQHITRKDQVEAALDTMLNSDGPYLLHVSIDELENVWPLVPPGASNSEMLEKLS
E. coli ER2744 [1]; 100 μg/ml valine and 50 μg/ml SM, 30° C., 0.3 mM IPTG
  cell growth on M9 plate with valine and herbicide SM: could not rescue cell growth
E. coli ER2744 [1]; 100 μg/ml valine
  cell growth on M9 plate in the presence of valine at both 30° C. and 37° C.: rescued the cells growth
E. coli ER2744 [1]; 100 μg/ml valine, 30° C., 0.3 mM IPTG
  cell growth on M9 plate supplemented with valine: able to grow
E. coli ER2744 [2]; 100 μg/ml valine, 50 μg/ml SM
  cell growth in valine M9 liquid medium containing SM: no growth
E. coli ER2744 [2]; 100 μg/ml valine
  cell growth in valine saturated M9 liquid medium: allowed cells to grow
E. coli ER2744 [2]; M9 medium with 100 μg/ml valine
  growth rate, time course study: fastest growth rate
